Assays:
[1] = target: human polyclonal IgG (Gammanorm) (human); assay: SPR; vs reference Zvar2; 0.5 M NaOH
[2] = target: human polyclonal IgG (Gammanorm) (human); assay: SPR; after 100 CIP cycles 0.5 M NaOH
[3] = target: human polyclonal IgG (Gammanorm) (human); assay: SPR; after 96-100 CIP cycles 0.5 M NaOH
[4] = target: human polyclonal IgG (Gammanorm) (human); assay: SPR; vs reference Zvar1; 0.5 M NaOH cycles
[5] = target: IgG1 monoclonal antibody (probe molecule); assay: SPR (Biacore), ligand on CM5 chip, IgG1 mAb as probe
[6] = target: human polyclonal IgG (Gammanorm) (human); assay: SPR; after 300 CIP cycles 0.5 M NaOH
[7] = target: human polyclonal IgG (Gammanorm) (human); assay: SPR; after 200 CIP cycles 0.5 M NaOH
[8] = target: human polyclonal IgG (Gammanorm) (human); assay: SPR; vs reference Zvar4; 0.5 M NaOH
[9] = target: human polyclonal IgG (Gammanorm) (human); assay: SPR; vs reference Zvar4; 1 M NaOH
[10] = target: human polyclonal IgG (Gammanorm) (human); assay: SPR; after 100 CIP cycles 1 M NaOH

## Zvar(Q9A,N11E,Q40V,A42K,N43A,L44I)2 with V1, D2, A3, K4, F5, D6, K7 and E8 in linker deleted (designed binder)
[1]
  capacity relative to ref. 100 cycles: 1.13
[2]
  remaining capacity 100 cycles: 62%

## parental C domain of Staphylococcus Protein A (from UniProt A0A0H3K686 270-327)
[3]
  reference capacity after 96-100 cycles: 49%

## Zvar(Q9A,N11K,H18K,S33K,D37E,A42R,N43A,L44I,K50R,L51Y)1 (designed binder)
[4]
  capacity relative to reference: 1.28
[3]
  capacity after 96-100 cycles: 59%

## Zvar(Q9A,N11E,A29F,Q40V,A42K,N43A,L44I)1 (designed binder)
[4]
  capacity relative to reference: 1.35
[3]
  capacity after 96-100 cycles: 62%

## Zvar(Q9A,N11E,Q40V,A42K,N43A,L44I,D53W)1 (designed binder)
[4]
  capacity relative to reference: 1.35
[3]
  capacity after 96-100 cycles: 62%

## Zvar(Q9A,N11K,H18K,D37E,A42R,N43A,L44I,K50R)1 (designed binder)
[4]
  capacity relative to reference: 1.49
[3]
  capacity after 96-100 cycles: 67%

## Zvar(Q9A,N11E,Q40V,A42K,N43A,L44I)2 with YEDG inserted in linker between K58 and V1 (designed binder)
[1]
  capacity relative to ref. 100 cycles: 1.31
[2]
  remaining capacity 100 cycles: 72%

## Zvar(Q9A,N11E,Q40V,A42K,N43A,L44I)1 (designed binder)
[4]
  capacity relative to reference: 1.4
[5]
  Kd: 1.07 nM
  koff: 0.000437 s⁻¹
  kon: 410000 M⁻¹ s⁻¹
[3]
  capacity after 96-100 cycles: 66%

## Zvar(Q9A,N11E,Q40V,A42K,N43A,L44I,D53Y)1 (designed binder)
[4]
  capacity relative to reference: 1.28
[3]
  capacity after 96-100 cycles: 59%

## Zvar(Q9A,N11E,A29Q,Q40V,A42K,N43A,L44I)1 (designed binder)
[4]
  capacity relative to reference: 1.28
[3]
  capacity after 96-100 cycles: 60%

## Zvar(Q9A,N11E,A29R,Q40V,A42K,N43A,L44I)1 (designed binder)
[4]
  capacity relative to reference: 1.26
[3]
  capacity after 96-100 cycles: 58%

## Zvar(Q9A,N11K,H18K,D37E,A42R,N43A,L44I)1 (designed binder)
[4]
  capacity relative to reference: 1.4
[3]
  capacity after 96-100 cycles: 63%

## Zvar(Q9A,N11E,A29I,Q40V,A42K,N43A,L44I)1 (designed binder)
[4]
  capacity relative to reference: 1.23
[3]
  capacity after 96-100 cycles: 58%

## Zvar(Q9A,N11E,A29W,Q40V,A42K,N43A,L44I)1 (designed binder)
[4]
  capacity relative to reference: 1.3
[3]
  capacity after 96-100 cycles: 60%

## Zvar(Q9del,N11E,Q40V,A42K,N43A,L44I)1 (designed binder)
[4]
  capacity relative to reference: 1.3
[3]
  capacity after 96-100 cycles: 60%

## Zvar(Q9A,N11E,Q40V,A42K,N43A,L44I)2 with V1, D2 and A3 in linker deleted (designed binder)
[1]
  capacity relative to ref. 100 cycles: 1.39
[2]
  remaining capacity 100 cycles: 75%

## Zvar(Q9A,N11E,A29V,Q40V,A42K,N43A,L44I)1 (designed binder)
[4]
  capacity relative to reference: 1.32
[3]
  capacity after 96-100 cycles: 62%

## Zvar(Q9A,N11E,Q40V,A42K,N43A,L44I)2 with K58, V1 and D2 in linker deleted (designed binder)
[1]
  capacity relative to ref. 100 cycles: 1.38
[2]
  remaining capacity 100 cycles: 76%

## Zvar(N11K,H18K,S33K,D37E,A42R,N43A,L44I,K50R,L51Y)1 (designed binder)
[4]
  capacity relative to reference: 1.46
[3]
  capacity after 96-100 cycles: 67%

## Zvar(N11K,H18K,D37E,A42R,N43A,L44I)1 (designed binder)
[4]
  capacity relative to reference: 1.31
[3]
  capacity after 96-100 cycles: 59%

## Zvar(Q9A,N11E,Q40V,A42K,N43A,L44I,D53F)1 (designed binder)
[4]
  capacity relative to reference: 1.26
[3]
  capacity after 96-100 cycles: 58%

## Zvar(Q9A,N11E,N43A)4 (designed binder)
[6]
  remaining capacity 300 cycles: 41%
[7]
  remaining capacity 200 cycles: 62%
[8]
  capacity relative to ref. 100 cycles: 1.21
  capacity relative to ref. 200 cycles: 1.72
  capacity relative to ref. 300 cycles: 2.56
[2]
  remaining capacity 100 cycles: 81%

## Zvar(Q9A,N11E,Q40V,A42K,N43A,L44I)2 with A56, P57 and K58 in linker deleted (designed binder)
[1]
  capacity relative to ref. 100 cycles: 1.26
[2]
  remaining capacity 100 cycles: 68%

## Zvar(Q9A,N11E,A29K,Q40V,A42K,N43A,L44I)1 (designed binder)
[4]
  capacity relative to reference: 1.28
[3]
  capacity after 96-100 cycles: 59%

## Zvar(Q9A,N11E,Q40V,A42K,N43A,L44I,D53R)1 (designed binder)
[4]
  capacity relative to reference: 1.3
[3]
  capacity after 96-100 cycles: 60%

## Zvar(Q9A,N11E,Q40del,A42K,N43A,L44I)1 (designed binder)
[4]
  capacity relative to reference: 1.28
[3]
  capacity after 96-100 cycles: 59%

## parental B domain of Staphylococcus Protein A (from UniProt A0A0H3K686 212-269)
[3]
  reference capacity after 96-100 cycles: 35%

## Zvar(Q9A,N11E,A29E,Q40V,A42K,N43A,L44I)1 (designed binder)
[4]
  capacity relative to reference: 1.21
[3]
  capacity after 96-100 cycles: 57%

## Zvar(Q9A,N11E,Q40V,A42K,N43del,L44I)1 (designed binder)
[4]
  capacity relative to reference: 1.2
[3]
  capacity after 96-100 cycles: 55%

## Zvar(Q9A,N11E,N28A,N43A)4 (designed binder)
[9]
  capacity relative to ref. 100 cycles: 2.04
[6]
  remaining capacity 300 cycles: 42%
[7]
  remaining capacity 200 cycles: 62%
[10]
  remaining capacity 100 cycles: 55%
[8]
  capacity relative to ref. 100 cycles: 1.19
  capacity relative to ref. 200 cycles: 1.72
  capacity relative to ref. 300 cycles: 2.62
[2]
  remaining capacity 100 cycles: 80%

## Zvar(Q9A,N11E,A29M,Q40V,A42K,N43A,L44I)1 (designed binder)
[4]
  capacity relative to reference: 1.32
[3]
  capacity after 96-100 cycles: 62%

## Zvar(Q9A,N11E,N28A,Q40V,A42K,N43A,L44I)4 (designed binder)
[8]
  capacity relative to ref. 100 cycles: 1.24
[2]
  remaining capacity 100 cycles: 84%

## Zvar(Q9A,N11E,N28A,Q40V,A42K,N43A,L44I)1 (designed binder)
[4]
  capacity relative to reference: 1.35
[3]
  capacity after 96-100 cycles: 65%

## Zvar(Q9A,N11E,Q40V,A42K,N43A,L44I,D53K)1 (designed binder)
[4]
  capacity relative to reference: 1.41
[3]
  capacity after 96-100 cycles: 65%

## Zvar(N11E,Q32E,K50R)1 (designed binder)
[4]
  capacity relative to reference: 1.04
[3]
  capacity after 96-100 cycles: 53%

## Zvar(Q9A,N11E,Q40V,A42K,N43E,L44I)4 (designed binder)
[9]
  capacity relative to ref. 100 cycles: 2
[6]
  remaining capacity 300 cycles: 48%
[7]
  remaining capacity 200 cycles: 65%
[10]
  remaining capacity 100 cycles: 54%
[8]
  capacity relative to ref. 100 cycles: 1.25
  capacity relative to ref. 200 cycles: 1.81
  capacity relative to ref. 300 cycles: 3
[2]
  remaining capacity 100 cycles: 84%

## Zvar(Q9A,N11E,Q40V,A42del,N43A,L44I)1 (designed binder)
[4]
  capacity relative to reference: 1.24
[3]
  capacity after 96-100 cycles: 57%

## Zvar(Q9A,N11E,A29S,Q40V,A42K,N43A,L44I)1 (designed binder)
[4]
  capacity relative to reference: 1.38
[3]
  capacity after 96-100 cycles: 66%

## Zvar(Q9A,N11E,D37E,Q40V,A42R,N43A,L44I)4 (designed binder)
[8]
  capacity relative to ref. 100 cycles: 1.17
[2]
  remaining capacity 100 cycles: 84%

## Zvar(Q9A,N11E,A29D,Q40V,A42K,N43A,L44I)1 (designed binder)
[4]
  capacity relative to reference: 1.19
[3]
  capacity after 96-100 cycles: 56%

## Zvar(Q9A,N11E,A29Y,Q40V,A42K,N43A,L44I)1 (designed binder)
[4]
  capacity relative to reference: 1.27
[3]
  capacity after 96-100 cycles: 61%

## Zvar(Q9A,N11E,Q40V,A42K,N43A,L44I)2 with K4, F5, D6, K7 and E8 in linker deleted (designed binder)
[1]
  capacity relative to ref. 100 cycles: 1.3
[2]
  remaining capacity 100 cycles: 70%

## Zvar(Q9A,N11E,A29N,Q40V,A42K,N43A,L44I)1 (designed binder)
[4]
  capacity relative to reference: 1.3
[3]
  capacity after 96-100 cycles: 61%

## Zvar(Q9A,N11E,A29T,Q40V,A42K,N43A,L44I)1 (designed binder)
[4]
  capacity relative to reference: 1.28
[3]
  capacity after 96-100 cycles: 60%

## Zvar(Q9A,N11E,A29H,Q40V,A42K,N43A,L44I)1 (designed binder)
[4]
  capacity relative to reference: 1.21
[3]
  capacity after 96-100 cycles: 57%

## Zvar(Q9A,N11E,D37E,Q40V,A42K,N43A,L44I)4 (designed binder)
[8]
  capacity relative to ref. 100 cycles: 1.13
[2]
  remaining capacity 100 cycles: 81%

## Zvar(Q9A,N11E,A29L,Q40V,A42K,N43A,L44I)1 (designed binder)
[4]
  capacity relative to reference: 1.33
[3]
  capacity after 96-100 cycles: 61%

## Zvar(Q9A,N11E,Q40V,A42K,N43A,L44I)2 with D2, A3 and K4 in linker deleted (designed binder)
[1]
  capacity relative to ref. 100 cycles: 1.27
[2]
  remaining capacity 100 cycles: 70%

## Zvar(Q9A,N11E,Q40V,A42K,N43A,L44I)2 with P57, K58, V1, D2 and A3 in linker deleted (designed binder)
[1]
  capacity relative to ref. 100 cycles: 1.35
[2]
  remaining capacity 100 cycles: 74%
